From publication PMC12300839, “Noncovalently Immobilized Glucose Oxidase/Horseradish Peroxidase Cascade on Polyamide Supports for Eco-Friendly Polyaniline Synthesis” (Molecules, 2025)

Substrate: OC[C@H]1OC(O)[C@H](O)[C@@H](O)[C@@H]1O
Assay: purified protein
Type: biochemical, Aspergillus niger
Conditions: apparent Km of the whole free GOx/HRP cascade, not of isolated GOx, authors call the kinetics governed by HRP, glucose 50-150 µM, dissolved O2, constant TMB, 0.1 M acetate pH 4.5, room temperature

B1: glucose oxidase (GOx) (Aspergillus niger) (protein)
chain: LPHYIRSNGIEASLLTDPKDVSGRTVDYIIAGGGLTGLTTAARLTENPNISVLVIESGSYESDRGPIIEDLNAYGDIFGSSVDHAYETVELATNNQTALIRSGNGLGGSTLVNGGTWTRPHKAQVDSWETVFGNEGWNWDNVAAYSLQAERARAPNAKQIAAGHYFNASCHGVNGTVHAGPRDTGDDYSPIVKALMSAVEDRGVPTKKDFGCGDPHGVSMFPNTLHEDQVRSDAAREWLLPNYQRPNLQVLTGQYVGKVLLSQNGTTPRAVGVEFGTHKGNTHNVYAKHEVLLAAGSAVSPTILEYSGIGMKSILEPLGIDTVVDLPVGLNLQDQTTATVRSRITSAGAGQGQAAWFATFNETFGDYSEKAHELLNTKLEQWAEEAVARGGFHNTTALLIQYENYRDWIVNHNVAYSELFLDTAGVASFDVWDLLPFTRGYVHILDKDPYLHHFAYDPQYFLNELDLLGQAAATQLARNISNSGAMQTYFAGETIPGDNLAYDADLSAWTEYIPYHFRPNYHGVGTCSMMPKEMGGVVDNAARVYGVQGLRVIDGSIPPTQMSSHVMTVFYAMALKISDAILEDYASMQ
notes: commercial native enzyme, type VIII (Merck/Sigma Aldrich), free in solution, ~160 kDa, FAD-containing
With B1 the Km was 275 µM and the Vmax was 696 µM/min/mg.
